A short description of this series: protease stability score; higher = more stable; yeast display proteolysis, trypsin and chymotrypsin.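 Also: relative to predicted unfolded state with 0 unfolded-like and 1 meaning tenfold more protease.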
In turn, “DDIEEILRRMTELFWRALATGDEREERELADPHVRLDVNGRTYHGMEKVREWYRRIDHHHFETWHYHHIEFQGEKVYIEGRMRVNLDINGQELRIDTFTIILMLVINGRIHRFQYQVH” showed a protease stability score of 0.467.

In turn, “DDIEETFRHYLDQWIRDLRTGDEEALYRLADPNARHKINGQHLHGRELHDHEFNRIKNLKVDFVTRDIRIIGDKLIIHGEMIIRINGRQISIDTEIYLRKIDGRWFVEQVNVG” returned a protease stability score of 0.305. The sequence “DDIEHDVKFFMERWVEAINTGDWKLLKKLVDPDAKFLIGDKELHGRELYVRHVLELRYRTEMIDNKIEVYDGRVHADMQVHSTLHIDGRNVDIHTHTRVVTRKVDGQWRLKSMEIL” yielded a protease stability score of 0.993. On to “DDIEKDIREVLDILIRAFQTGDEDKILELFDPHARVDVGEYHNHGWERVEEWMHRVDHIDVRRLEIKHFHHINGRIVLHTHFDGILTINGREIHTETEVHIILVKINGKWYFKEISHH”, for which the protease stability score turned out to be 2.12. Take “DDIEKDMERFTHVWLEAWRTGDEDLAKELFDPNTRVEQGDKKYHGRTEFVNLLSHIRIRDMRIHDIHYIVIDGKAIIDFDGELTIDVNGRFHRHRVIIHVEVIKINGQWEISQMRIEVR”: the protease stability score turned out to be 1.11. In the case of “DDIEKLMLWALHLFSHALSTGNEELVIRLADPHYRLHIGDWESHGRENFRQFIHEIRMHMKRVDDRDIRVQGEFVRIEGELDGVIFIDGRTFRTRLDTRIILNKVDGRWFIHSNHVH” it was 1.27; in that of “DDIHRIIKTALELWLRVLETGDERLIHELLDPDARFVINGKFYHGREVWEEERRQIDHIRMDTFHLKHIDLVNGRLRIEGHIVFTVHVNGRTTRREEDVHFILTKFNGKWEMQSLNIE”, 1.15.

“DDIKEESRHAHEEMLKIIKTGNEEVFEEMADPDVRIILDINGRDVRSHGREEAVRFWHEFMERVKGLRIHTDDLIVVGDKIELRIHSRYNGVRTHIRMIVSKFDGVWLLTELEIRVV” came in with a protease stability score of 1.75. The value for “DDIKEETDHLVDLLMEDIITGNERRLSHLADPNVRFTVGDWHSHGRKEMVEALRFTLDRADHVEYQPHRIENQGDKATAVIRVKLEYNGRTEEFRLIFTMEKIDGKWIVHKIFYR” was 0.976; that for “DDIKHEILRLMQLAFHYWETGDWEHFHHLADPHVRIDLDFNGKRLDLHGRDELQRVLEEELKRIDHFELHVTSLTDQGNKAELHGHRHIHQGDKRIDVRVINILIVVDGRIKTYSVHIR” was 0.909; that for “DDIREDLLRIIKLFIDYLITGDWKWIEKLADPHVRVEIDVNGKEIERHGMDQLREHLKHLWDRYDHLEFRIDDFKAIGEYSTLNGTLIVVVDGQKKSVEVRVVIVIINGKIDEVRHEQN” was -0.239. In the case of “DDIRKWMEHVFRDFNRSLKTGDERRSLELLDPHARIDINGVELIGREMFRKELHEMRIHVDDFDIESVDIQGDKVHLRTRVRVTIIVDGVKIHEERELEIHLHKFDGRWYIKEIRVR” it was 1.46; in that of “DDKDEHSYRVAEDVVEAWLTGDWRWLMDMFDPHVRMDIDIDGVDIHLHGRHELARYILEEHQKYKNITVHIEHIRVQGDFIEINTSVRIDGQRHDRRLIIRIINGKIEEHQIHVR”, 1.01; in that of “DDKDEILLKLAKIVFENELTGDEESLEHLFDPNTRRIVNGKELVGWELISKYWKEQKKEMRVELRLRRHDIQGDKTRVRGEEILEIGEFKLILDVEITIVVINGRFTRIEIRVK”, 0.185. In the case of “DDKDEKSKKWAEMFIHLIETGDEERIRELLDPDVRVEIGDKEIHGRERWLEWERRMRDKYKNLRFRIEHHHIQGDKVHIRTEREIGDKSLDIRIEIIIYNGRAKEFHIDIR” it was 2.87; in that of “DDKDELTRTALEIFEYLEITGDWHVVSREADPHVRIVIGDKHLHGMEIFMDLTEELGVDHSSVHSLRSQGDKIDIDIELHQGEKSFRTKVTAEKVDGRWLIKRVLFR”, 1.3; in that of “DDKDQHEEVEKFARNVVSGNSDELRKQMDKDVRANVGDKTLRGREEVADFWKHMRDRIDHAEIKEIRFHNGEARIVMQFVHNGRTKQINIVMEFHDGHVKRLRVEDG”, 2.58. For “DDKEEHWHELNRIYFEWFRTGDEELIAKNADPNVRYHIDGREFHGREDFDKLMDHLSRKFKNARIEFDDMRWQGDKLHLRGTLRVGDKNIDTRIHIVIVNGQLHLIIHIRD”, the protease stability score came out at 1.31. The value for “DDKEETARRILDWITKLLLTGDFDTLHRMADPHMRSNYGEFEMHGMEEHSEWWHRLTLRVDHLREEIKRVTVVNGKIVADLRLRFIIGDKVEVRDITVELIVVDGRLKELRFDVK” was 1.14; that for “DDKEKHVKRISEILLHTWHTGNEESLNRMFDPEVKVYWNGRELVGRENSSKHLAEEKRRADHVEIEIKDVHVIGNKMIIDGTLRRHIGDYQDESEVHIHIEVVDGRIKRLELRIK” was 1.1; that for “DDKEQRVEELARLLYKMLLTGDWKTLEHLADPHVRMHQGEYNNVGMETVVEHWRRWYEHIRLDDMKITDLKVYGNKLHTDIRLDGEVNGKHRILESELLLIVVDGKMREIEIRII” was 1.19. The value for “DDKHEINRELTRLFFETWLTGDEDWFQKMLDPHVRVEVGDKRSHGREEAARMLREHFESLGIKHLEYKSIELQGDKTIIDGRLDVDGQTRNSKIKVLIIDGRLTHLHIKLE” was 1.01; that for “DDKHELSHKFVRLIMHLIDTGDEDDIHRLLDPHAKLHVGDKRFVGREDIAHFWKKHLDDLGADYRHTRLKHIDLIGEKVIVHTEIDLTVGEYRVTIDSTFVVEKINGRWLSREFRWN” was 0.88. The value for “DDKKQFLDHAINRLIRALLTGDWHILFRLLDPHVRMIQGDKEYHGRELWREIYFQDIQRVPNLTFLIKDYHIDLQGDKLRIEIEGELIIDGVNIHMEIISEHTKVNGRWSIHHLEIRHQ” was 1.33; that for “DDKQRAYEELTRKTLEVIETGDERMIEEMLDPNVRIHIDGKHVHGMEEATRIFLHEFHHLGFKHFEFKSVIEVDEKLIVTGHMRVDGREVELRIVIWKVNGRWTTESIQIHRL” was 1.4. As for “DDLDRYAEEAEKRHYENLETGDENRLQENADPHTRMDFNGRKFHGMDHNYHWMRKIREDLGVDNIRIHIHHMSVVDGVLHLDLIIRYGDKELRLHFVSEKINGRWRLKEVYYK”, the protease stability score is 0.855.

The sequence “DDLEEATEFYIKLYYEAVETGDERLITELADPNMRIDWNGREIHGREEFVRRLREMRVSRIEVQHVDKYGDKLHIHVRIIIEVGDKKIESSSHLISLKFNGRWLLKSMWIK” returned a protease stability score of 1.39.

Take “DDLEEEAHKFLRIWLKNIITGDEDTLIELMDPRPRTIFNGVDLHGREDTSKRLSELRFNMRIDDIHVEVQGDKAIALSDVSYELIYNGRHVHLKSEIILTVRKFDGKWKAERLEIRIK”: the protease stability score is 1.67.

“DDLEEEAKDAVTKFIHLLLTGDWKEIREMVDPNVRIDVGDKEKHGWEDFIRDALYMHHQVDHIEVRIRHIDIFENRVVTHSVIYIEVNGQDIRLDLTLYIKKINGRWEIRQIEFK” came in with a protease stability score of 1.82.

Regarding “DDLEEEVEHFFELFWDDLLTGDEHSLTRQLDPHARFEYGDKVWHGREVYRQFMTQADHRHVEIKHTRVVNGRVEMNIEVRLHINGRRIESTVHIISTKINGQWRLESQHVE”, the protease stability score was -0.081.

For the sequence “DDLEESLKHLLELIIQWIRTGDFHMLSQYADPDVKIHYNGREYIGREFFLQLMREMGANHFSVERIDFQGDKLHVEISFRVGDKETHTRVESWKFNGVWLLKHIEMR”, the protease stability score came to 0.463. In the case of “DDLEHDHKTVLELLKHLEETGDWDRLAKLADPNVRLQIGDKEWHGRRDMAKVLKRFIEEMRIQHIRFRDMKIQGDKLVFDTELDFEQGDKTVHVRTEIILVVVNGQLKSIEIRIE” it was 2.44; in that of “DDLEHEAHEFVRRFMEDFDTGNEKSFEDLADPNVRLDFDGKRQHGRETVSEWLYRWLYDLGIKHTTLRHVETINGRVHSTAELKVGDKHYDLHVEFKKVDGKWVFQRVYFR”, 1.11; in that of “DDLEHQARESLDLHTEARKTGDEDQLKNLIDPHVRIEQGDKHIHGMEMFIRHWHKLGADHSEFRLKHVRVIDGRVRIDGEMIIHINGRTISIEVHFNINKINGRWIITEIHIH”, 1.09. In the case of “DDLEHSSETFEKLWLESVFTGDWRSLLEMLDPHARLVINGRDFIGRELVKETLKEFLDRVPNMTLKLEDREVHIQGDKARIELHTRLEVGDKTVDTRIELIVNKIDGRWLLESQIIRIH” it was 1.08; in that of “DDLEKIVLRMLNLWLKSILTGDEEFEEHYADPNVRYEINGVELHGRERFSQWLTDLRRKFKNIRIEIRVHHTEAQGDKMRSEEELIIDFEGRQINREVRIDMKVIDGRIKEVKVHII”, 1.42; in that of “DDLEKVSHWFNRMWTEILKTGDEKLLKDLLDPHTKLIFENRHEHGREHMISFFKKLLDEMRVHDVKIRDIEVQGDKVISDTSLDLEINGRSFEVETRLLAVKVNGRWYVHEIELR”, 2.36. In the case of “DDLEKWYEDIARLYHHNLLTGDEDVIHELLDPNVRLVVGDKHFHGRESVIEFLKRELTEIRIEDIKIKEVHWVGDFSINRGTLHIRINGVLFDVRSEVIFDVINGKIRRVTRIII” it was 1.6; in that of “DDLEQESHKVFEQYVRDWRTGDEHNVERLADPHVRVLYNGRHSHGWKEFLEHFSRDAQQADHTEFRIDDTDHQGDKMVLNETVILRYGDKEIQIEVELIYRKIDGRWYITEVRFR”, 0.204. The sequence “DDLEREAEEFHRLMHKSVRTGDEKLIEEMFDPNVRLDINGREMHGRHDVVELERRVDHSEWHIEDIRVVGEWADIRGELVIQVGDKEHIYKTRLIVLKIDGKWRTTEMHVR” yielded a protease stability score of 0.731. In the case of “DDLEREAKTMVDRFRELMATGDFEEREHLVDPNTRWHVNGQDFHGRELITEILIKKFEDLGVEKITFRVERIRVVGDKIEVDGVLIIDGREIDTRLNWTKVNGRWIIKFESEK” it was 0.927.

“DDLERLVRELLDLWKRALKTGDEDVLSKMFDPDVRLTINGQVSVGREDVLRLWQEWRVDRMEERDVTVQGDKIHMDGHSHVEYDGRRIEVRHEIILVIVNGRAKSQEVRIR” had a protease stability score of 1.62. The value for “DDLETMFRRLFREWIERAETGDESRLRHLADPHYRSDQGDYDLHGREFAHEFLSRLWKELRFTIHIRHMYVYDGRVEVDGEIRVRINGRETTHKIRIEIVIVDGRIESEHIEIR” was 1.26; that for “DDLHEDTKRYLKEWIDLMYTGDEEKIFENMDPNTRIIDENHELHGREEVKDWARRMARELRHREFELTHLEVQGNFIHVRGLLIGDQGDKVIIRDVEIISIKINGRWRIESVRFE” was 2.34. “DDLHRNMKKVADLFIQVWLTGDFEELMHLFDPNVRLKVNGVEMHGRDDFAKFVKEHRERIDHMHFRLDELRIYGDKIVIHGTLHLHQGEKDWHHEVHIHLLVIDGVIRTVEEEER” showed a protease stability score of 2.08.

For the sequence “DDLKEDADKYSDLEREARQTGDEDFISNLMDPNVLVLINGREIHGREDVLKWLVDLRRKLGVDRFRSEVEDKHIDVQGDKIRIHGILRLNFNGQHFRIDVHIIFQKVDGRWHVREERYH”, the protease stability score stood at 1.41. In the case of “DDMEEMAKEVFREWFEIVETGDEEKLLKLIDPNTRVDINGQEVHGREDISRITSKLIRELGVKHIRSEVKSFDIVGNKIRVRGLEIRDVGDKHKEIHTHFFIMKIDGKWVITNMHFH” it was 1.5.

Source of the values: the NTF2 design screens of Basanta et al. (2020).
